± gives the uncertainty stated by the source.

The nature of the data set: amyloid nucleation score (Sup35N fusion, yeast selection) (log enrichment); library NNK1; higher = more nucleation; inactive = no reads after selection. The procedure, abridged: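 The nucleation score, computed with DiMSum, is the log enrichment of output over input reads, centred on the mode score of non-aggregating sequences. Sequences with under 100 input reads were dropped. Reads were generated by Illumina sequencing of plasmid inserts from psi-negative yeast with Sup35N fused to peptides of 20 random codons, induced with 100 μM copper sulfate for 24 hours and grown 7 days at 30°C on medium lacking adenine and uracil.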
KYVIGVNAMEWWPTTTAI displayed an amyloid nucleation score of 0.166 ± 1.6.
The same measure for KYWGS: “inactive”; for KYYMHLSSRDRRGAAWHLLF: -0.075 ± 0.29.
In turn, LACCFIVSWFNGSGSLTSRS yielded an amyloid nucleation score of 7.497 ± 0.05.
As for LACSVAA, the amyloid nucleation score is -0.493 ± 0.34.
Substance LAGIVCEWWFGWVGDVQLAF had an amyloid nucleation score of -0.604 ± 0.85.
The substance LALHSNNQLFF registered an amyloid nucleation score of 0.839 ± 0.81.
Substance LATNFCDTMRYVNGFRIAWC had an amyloid nucleation score of 0.647 ± 0.66.
Regarding LAVTFQGIGFSYSILHITTY, the amyloid nucleation score was -0.164 ± 0.44.
LAWVGVLW: the amyloid nucleation score was -0.219 ± 1.1.
Take LCANNFHHVDKTGFAICNIH: the amyloid nucleation score is 3.64 ± 0.051.
Substance LCDFLNAYEINGKFSCGGTR returned an amyloid nucleation score of 0.084 ± 0.38.
Turning to LCEHKSRLVEDAKGGET, the amyloid nucleation score is -0.043 ± 0.47.
Next, LCFYDKYGPQYL: -0.59 ± 0.54.
As for LCGDHLFWLDVGDAVGVFLA, the amyloid nucleation score turned out to be 0.176 ± 0.4.
LCGTMWAG gave an amyloid nucleation score of 0.62 ± 0.51.
The substance LCKFYPAFTGTTCTNLLSVW displayed an amyloid nucleation score of 0.321 ± 0.84.
The substance LCLFFGLHLWVWMRKACCY returned an amyloid nucleation score of -0.205 ± 0.31.
On to LCLKF, for which the amyloid nucleation score turned out to be 0.77 ± 0.97.
In the case of LCLLCNRYRWTN, the amyloid nucleation score is 7.041 ± 0.048.
LCLRLCPLMVWSCVLERWVS: the amyloid nucleation score is -1.78 ± 2.7.
The same measure for LCSDIG: -0.09 ± 0.4; for LCSLTGLGYAMHVYVSLDVQ: 0.086 ± 0.5; for LCTLTVNYRSEHSYFYCINF: -0.319 ± 0.41.
The same measure for LCWTIWV: -1.61 ± 2.4; for LDCYRLRCSLEAIECVISNE: -0.479 ± 0.21.
LDEVHESSIRSGNY displayed an amyloid nucleation score of 3.12 ± 0.17.
Substance LDHGEFTKYFRLTRCVSTCC displayed an amyloid nucleation score of -0.339 ± 0.97.
Substance LDMVANYLYSGSALILYCHL had an amyloid nucleation score of -1.17 ± 2.1.
The same measure for LDSAYSGGKCYTWFNIRRFV: 0.361 ± 0.86; for LDSCPAL: 0.47 ± 0.57.
Next, LDVYCH: “inactive”.
LEFGSSSGAIVMRGEDPCQP yielded an amyloid nucleation score of 0.649 ± 0.52.
Next, LEFVYNH: 1.44 ± 0.74.
LEITTHTSGIILMKGTPLRR registered an amyloid nucleation score of 3.14 ± 0.087.
As for LELTIRVRNSIVI, the amyloid nucleation score result was “inactive”.
LEMGDPCQYCLDLFAGYPSG: the amyloid nucleation score worked out at 0.549 ± 0.55.
Take LEPNCVLSYTDSFVNQFVTL: the amyloid nucleation score worked out at 0.119 ± 0.3.
For the substance LEWGQPHPCSGFRKCWYSDV, the amyloid nucleation score came out at 0.136 ± 0.58.
In turn, LFADYILCTCAGCGTGAWEM came in with an amyloid nucleation score of -0.092 ± 1.1.
Substance LFALNCDCM returned an amyloid nucleation score of 7.448 ± 0.053.
Regarding LFATYLAFKFY, the amyloid nucleation score was -0.356 ± 1.
For the substance LFDARDSRFSCRYVMRRVWV, the amyloid nucleation score was found to be 0.195 ± 0.25.
LFEGEIIMK: the amyloid nucleation score entry is “inactive”.
The same measure for LFFGSTLMDATFGYGDSDCN: 0.828 ± 0.62.
In turn, LFGEFRNEINAI returned an amyloid nucleation score of 0.031 ± 0.31.
As to LFHQLRITSVLSYDDKCEAR, the amyloid nucleation score came out at 0.41 ± 0.2.
With LFIRGMIDDKVSITNYVC, the amyloid nucleation score was -0.546 ± 0.31.
LFLCGGDCYGKFLLCPCLVS registered an amyloid nucleation score of 0.144 ± 0.9.
Turning to LFNLFSRL, the amyloid nucleation score was determined as 0.335 ± 0.51.
In the case of LFSNPFRQAWH, the amyloid nucleation score was -0.445 ± 0.71.
As for LFSPMSILRFLFMYIAKVMD, the amyloid nucleation score is 0.213 ± 0.58.
In turn, LFTKNSIGGVFPCPPETARY had an amyloid nucleation score of -1.18 ± 2.4.
Next, LFTNMYSRVLTFLM: -0.441 ± 1.7; LFTSVYL: -0.173 ± 0.53.
As for LFYTCRVDQGPVWGLLTKRR, the amyloid nucleation score stood at 0.344 ± 0.77.
Next, LGFMTCSP: “inactive”; LGGSDYVYANSFTTIGSSGV: -0.202 ± 0.21.
In turn, LGHGGVR displayed an amyloid nucleation score of 0.566 ± 0.28.
Substance LGLFCESYDEADCRTEDSAC yielded an amyloid nucleation score of 0.254 ± 0.3.
LGMCFENSPVNLFWAIDSQM came in with an amyloid nucleation score of 1.95 ± 0.37.
Substance LGNNPTKHC displayed an amyloid nucleation score of -0.171 ± 0.51.
With LGRSGKMTT, the amyloid nucleation score was -0.032 ± 0.54.
Substance LGSAAISLIVLFLG gave an amyloid nucleation score of 2.64 ± 0.27.
For the substance LGSMSTWVDRLRVANQVVVC, the amyloid nucleation score was 0.785 ± 0.77.
Substance LGTMSVYRRPRSMMGCRDQG registered an amyloid nucleation score of 0.173 ± 0.26.
In turn, LGVKFVQDGTINKGHLKR showed an amyloid nucleation score of -0.543 ± 0.63.
In turn, LHETFVCR displayed an amyloid nucleation score of -0.267 ± 0.58.
Take LHGPN: the amyloid nucleation score is 0.705 ± 0.71.
The same measure for LHLAAMM: -0.344 ± 1.1.
LHLNSCSQNITSLHYLPFWA registered an amyloid nucleation score of -0.113 ± 0.39.
Turning to LHRALYLDRQLISWGTVSQM, the amyloid nucleation score is -0.332 ± 0.42.
The substance LICVGCSCYSLKLSYNSSGL showed an amyloid nucleation score of 5.79 ± 0.058.
LIEVWYVLIQGECDPWVTHG had an amyloid nucleation score of 1.07 ± 0.97.
The same measure for LIIILVQQSEGACRILARD: 0.028 ± 0.34.
On to LILKYAVGRRQARVVKRNSR, for which the amyloid nucleation score was -0.575 ± 1.4.
In turn, LIRHVLNLVL registered an amyloid nucleation score of -0.139 ± 0.77.
LISGKYLYSPTALLDHIL: the amyloid nucleation score stood at 0.484 ± 0.68.
With LITWCIVVAWCIIVTREA, the amyloid nucleation score is 2.84 ± 0.12.
Take LIWAVLCVKHTKEYVWLAHL: the amyloid nucleation score is -0.469 ± 0.54.
The substance LIYAREDGEALWEAIRPTEK came in with an amyloid nucleation score of -0.047 ± 0.48.
As to LKLLFVTLKMLASMFFRGS, the amyloid nucleation score is -1.28 ± 0.77.
The same measure for LKNSVSFMADGS: -0.327 ± 0.38; for LKSDMIADTTAL: 2.67 ± 0.12.
On to LKSPTWPMSHSDRLTHRLLC, for which the amyloid nucleation score came out at 0.004 ± 0.69.
As for LKTEPHIRLSPLETRPV, the amyloid nucleation score is 0.552 ± 0.77.
The substance LKWGMVLGAYIHEFGCNM returned an amyloid nucleation score of 0.804 ± 0.61.
The substance LKWRV displayed an amyloid nucleation score of -0.771 ± 1.1.
LLAEASLVKETTLCYHSPSL: the amyloid nucleation score worked out at 0.04 ± 0.56.
As to LLCDWDGQ, the amyloid nucleation score was found to be 0.497 ± 0.43.
LLCICWLALICCLNSELGSQ showed an amyloid nucleation score of -0.675 ± 1.
Take LLCWRYFSCSYFLECVGSTS: the amyloid nucleation score was -1.14 ± 0.86.
LLFCRFRSWDRDHRWCRCD came in with an amyloid nucleation score of 1.95 ± 0.66.
LLFFGYYAFDHICYAEYLSC gave an amyloid nucleation score of 2.71 ± 0.14.
With LLFGTHVPIRRGRFDASMIY, the amyloid nucleation score turned out to be 0.58 ± 0.5.
In turn, LLKRRTREIAALYRHSSNGY displayed an amyloid nucleation score of 1.26 ± 0.57.
The substance LLKSKRL gave an amyloid nucleation score of 0.563 ± 0.43.
In turn, LLLDTLVCVVKHTNTCFSKW came in with an amyloid nucleation score of 0.503 ± 0.26.
The substance LLLLIN gave an amyloid nucleation score of -0.663 ± 1.7.
The substance LLMGFGGAFSVNTADPRLLV returned an amyloid nucleation score of -0.752 ± 0.65.
With LLMLGLLSQH, the amyloid nucleation score was found to be 0.427 ± 0.28.
LLMYSKWAFTDYGT returned an amyloid nucleation score of -0.147 ± 0.74.
Turning to LLNSFPSNCQVKDMELQGME, the amyloid nucleation score was -0.176 ± 0.93.
LLNYGLRFCLVTARSELTYM yielded an amyloid nucleation score of 0.979 ± 0.62.
For the substance LLPWGYD, the amyloid nucleation score came out at 2.77 ± 0.15.
LLRNGFHSVLI registered an amyloid nucleation score of 0.488 ± 0.25.
In turn, LLRSILTMAY had an amyloid nucleation score of 0.605 ± 0.43.
Next, LLSCSYMKIVFI: 1.47 ± 0.16; LLSYFLRNPYMSNGTTGLHG: 0.144 ± 0.79.
Substance LLVNGLMGMWPIFII yielded an amyloid nucleation score of -1.03 ± 2.4.
Next, LLVRHEEKG: 0.263 ± 0.42; LMGDLYGSLRMCLVGSRWLL: 0.082 ± 1.2; LMHKDISERDRSCLWL: 0.033 ± 0.5.
Next, LMLGCGCECHVSSVSQKENM: 0.301 ± 1.1; LMLPMESAPKRLGEGVGPSR: 0.233 ± 0.47.
Regarding LMSEVRPAMLDSSVLRDCYD, the amyloid nucleation score result was “inactive”.
The same measure for LMTRSVIVIRLMEEKSAA: 0.163 ± 1.4.
Next, LMVNYRLRLYFFVLDSCDGE: -0.348 ± 0.28; LMYWLLLMEIRYNLKPLNRL: 2.29 ± 0.084; LNAKFIVKW: 0.588 ± 0.21.
The same measure for LNHCVNMLRGRCGVPLLSVV: 0.551 ± 1.1; for LNHIRRTVR: 1.23 ± 0.53; for LNHNIFVFFLQIIQTHDIWF: 4.87 ± 0.09.
As to LNKVWFSWSRDKVRYTGMLV, the amyloid nucleation score is -0.857 ± 0.48.
Turning to LNLGGSF, the amyloid nucleation score entry was “inactive”.
LNLHS: the amyloid nucleation score is -0.384 ± 1.2.
The same measure for LNLTMVGIYINDFL: 4.69 ± 0.099; for LNPLVLSCSGEIDSMFNV: 1.11 ± 0.34; for LNQPWYIRIQANIDFNR: 4.47 ± 0.079.
In turn, LNRFVPASRWDHLHL came in with an amyloid nucleation score of -0.353 ± 1.7.
Turning to LNRRMNRCCTWLNMCADFFA, the amyloid nucleation score is 0.865 ± 0.75.
For LNTWVGVGGWPE, the amyloid nucleation score was -0.135 ± 0.78.
The substance LNYLYDIMLSSLTSQTDSMS yielded an amyloid nucleation score of -0.689 ± 0.66.
In turn, LPCMGKLIYVCRSRLEREQS returned an amyloid nucleation score of 0.498 ± 0.62.
The same measure for LPDVKCVLLLMLHLEASRSA: -0.21 ± 0.58; for LPFLS: -0.116 ± 0.68.
With LPGYVGQ, the amyloid nucleation score was found to be 0.472 ± 0.78.
On to LPKMWYIDLFVSGVY, for which the amyloid nucleation score stood at 0.241 ± 0.48.
Regarding LPMLLFAHITFNMLNDVSPN, the amyloid nucleation score was determined as 5.94 ± 0.086.
Next, LPTHHCGLNVSSDGSNSELR: 0.068 ± 0.46; LPTVDMIWIRGFGFQELSWC: “inactive”.
For LPVLLSFVSYGS, the amyloid nucleation score was -0.162 ± 0.34.
Consider LPWPRNRFCTLIDEIHTPVY, for which the amyloid nucleation score was -0.167 ± 0.57.

These data come from the supplement of paper PMC12042874.
